Where two headings read alike, the source gives them in different places. Numbered stars: 1 amine (or outer) side, 2 acyl side, 3 side chain; on linkers, the order of the positions; unused ones are H or OH. Bridge positions count the residues as written; N and C are the ends. Square brackets hold non-standard residues; d marks the D form. Ends that are not written are not given here. X4 = (3S)‑3‑amino‑2‑oxo‑1‑piperidine‑acetic acid, O=C1[C@@H](N[*:1])CCCN1CC(=O)[*:2]; 5,5‑bicyclic dipeptide mimic = not defined here; Tyr(Me) = COc1ccc(C[C@H](N[*:1])C(=O)[*:2])cc1; Phe(3-Cl) = N[C@@H](Cc1cccc(Cl)c1)C(=O)O; Dip = N[C@H](C(=O)O)C(c1ccccc1)c1ccccc1; Phe(2-Cl) = N[C@@H](Cc1ccccc1Cl)C(=O)O; His(1-Me) = 1-methylhistidine; NMeL = CN[C@@H](CC(C)C)C(=O)O; Pen = CC(C)(S)[C@H](N)C(=O)O; hCys = N[C@@H](CCS)C(=O)O; Sar = CNCC(=O)O

This note sets out measurements from US20110059889A1 (SYNTONIX PHARMACEUTICALS, published 2011).

In test [1] the target is T1, soluble human FcRn (shFcRn) (human, UniProt P55899 24-297; P61769 21-119).
T1 construct: Biotinylated for the ELISA, amine-coupled to a CM5 chip for SPR; also called biotinylated shFcRn
Nature of the test: IgG competition ELISA.
Method: (§1) The wells were coated with 100 μl/well of 1 μg/ml biotinylated-shFcRn in Buffer A. The plate was sealed and incubated at 37° C. for 2 hours. Afterwards, the plate was washed with 200 μl/well of Buffer B (Buffer B: 100 mM MES pH 6, 150 mM NaCl, 0.5% BSA IgG-free (Jackson ImmunoResearch, West Grove, Pa.), 0.05% Tween-20). […] To allow for mixing, the plate was rocked for 2 minutes, sealed and incubated at 37° C. for 2 hours. […] The plate was covered, incubated for 30 minutes at room temperature and washed 4 times with 200 μl/well of ice-cold buffer B. SureBlue TMB substrate solution (100 μl/well, KPL, Gaithersburg, Md.) was added and the plate was allowed to incubate at room temperature until color developed, which took 5 to 10 minutes. Once color developed, 100 μl/well of TMB stop solution (KPL, Gaithersburg, Md.) was added and the absorbance was measured at 450 nm. The data was plotted as absorbance vs. peptide concentration to derive the inhibitory concentration 50% (IC₅₀) values.

For test [2], the target named is T1, soluble human FcRn (shFcRn). Nature of the test: IgG competition ELISA. The source holds these as a separate data set.
Method: as §1
For test [3] the target is unchanged. Nature of the test: SPR pH 6.
Method: (§2) The following steps were performed to cross-link soluble human or cynomolgus FcRn to the dextran surface of a CM5 sensor chip (Biacore AB, Uppsala, Sweden) by an amine coupling reaction involving 1-ethyl-(3-dimethylaminopropyl)-carbodiimide hydrochloride (EDC) (Biacore AB, Uppsala, Sweden) and N-hydroxysuccinimide (NHS) (Biacore AB, Uppsala, Sweden) as recommended by Biacore (BIAapplications Handbook, version AB, section 4.2, Biacore AB, Uppsala, Sweden). […] Residual sites on the FcRn flow cell were blocked with 1 M ethanolamine hydrochloride pH 8.5 (Biacore AB, Uppsala, Sweden). A control flow cell was blocked with ethanolamine for reference subtraction. For analysis of the monomeric peptides, FcRn was coated to a final density of 4000-5000 response units (RU). For analysis of the peptide dimers, FcRn was coated to a density of 2000-2500 RU. All SPR measurements were performed using a BIACORE 3000 Instrument (Biacore AB Uppsala, Sweden). For measurements done at either pH 6 or pH 7.4, experiments were performed in 50 mM phosphate, 100 mM sodium chloride, 0.01% surfactant P20 (Biacore AB, Uppsala, Sweden).
(§3) Ten, 2-fold dilutions of the peptide were injected over the FcRn-CM5 chip at a rate of 20 μl/min for 2 min. The peptide was dissociated from the chip for 2.5 minutes with buffer. Any remaining peptide was removed from the chip with a 30 second injection of HBS-P buffer (Biacore AB, Uppsala, Sweden) at a rate of 30 μl/min. Sensorgrams were generated and analyzed using BiaEval software version 3.1 (Biacore AB, Uppsala, Sweden). The equilibrium RU observed for each injection was plotted against concentration. The equilibrium KD values were derived by analysis of the plots using the steady state affinity model included in the BiaEval software.
Test [4] has the same target. Put plainly: IgG competition ELISA. The source holds these as a separate data set. Background: In an ELISA, binding on a coated surface is turned into a signal by an enzyme label.
Method: as §1
Test [5] has the same target. Put plainly: IgG competition ELISA. The source holds these as a separate data set.
Method: as §1
Test [6] shares this target. Nature of the test: SPR pH 7.4.
Method: as §2, §3
Test [7] shares this target. Put plainly: IgG competition ELISA. This is another data set of the same source.

T1 sequence (P55899 24-297 limits assumed, chain 1 of 2): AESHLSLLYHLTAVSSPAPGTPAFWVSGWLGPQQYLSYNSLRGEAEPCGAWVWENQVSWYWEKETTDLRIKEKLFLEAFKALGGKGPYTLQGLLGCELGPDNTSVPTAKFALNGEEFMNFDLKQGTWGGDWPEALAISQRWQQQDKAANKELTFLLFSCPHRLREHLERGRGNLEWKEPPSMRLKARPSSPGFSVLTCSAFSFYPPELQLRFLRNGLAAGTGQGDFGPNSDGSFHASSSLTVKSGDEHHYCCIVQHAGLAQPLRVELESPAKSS
T1 sequence (P61769 21-119 limits assumed, chain 2 of 2): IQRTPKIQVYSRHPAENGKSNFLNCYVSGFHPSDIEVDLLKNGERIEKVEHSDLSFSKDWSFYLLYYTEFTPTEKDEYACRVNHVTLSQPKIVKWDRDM

For orientation: IC50 means the point on the concentration scale where inhibition reaches its midpoint. A higher IC50 goes with weaker potency. Molecule QRFCTGHXGGLYPCNGP (Pen 4; 2-pyridylalanine 8; disulfide 4-14; C-terminal amide) [Peptide No. 58] showed an IC50 in test [1] of 90 µM.

B1: Peptide No. 193 (peptide)
peptide: RF[Pen]TGHF[X4]LYPC-NH2
modifications: disulfide 3-12; N-terminus assumed
SMILES: CC(C)C[C@@H]1NC(=O)CN2CCC[C@H](NC(=O)[C@H](Cc3ccccc3)NC(=O)[C@H](Cc3c[nH]cn3)NC(=O)CNC(=O)[C@H]([C@@H](C)O)NC(=O)[C@@H](NC(=O)[C@H](Cc3ccccc3)NC(=O)[C@@H](N)CCCNC(=N)N)C(C)(C)SSC[C@@H](C(N)=O)NC(=O)[C@@H]3CCCN3C(=O)[C@H](Cc3ccc(O)cc3)NC1=O)C2=O
Regarding B1, the IC50 in test [2] is 7.3 µM.

B2: Peptide No. 239 (peptide)
peptide: RFCTGHFXLYPC
modifications: not fully specified; Pen 3; X 8 = 3(S)-3-amino-2-oxo-1-azepine acetic acid in place of Gly-Gly; NMeLeu 9; disulfide 3-12; C-terminal amide
In test [2], B2 showed a 50% inhibitory concentration (IC50) of 0.62 µM.

B3: Peptide No. 56 (peptide)
peptide: QRF[Pen]TGH[Tyr(Me)]GGLYPCNGP-NH2
modifications: disulfide 4-14; N-terminus assumed
SMILES: COc1ccc(C[C@@H]2NC(=O)[C@H](Cc3c[nH]cn3)NC(=O)CNC(=O)[C@H]([C@@H](C)O)NC(=O)[C@@H](NC(=O)[C@H](Cc3ccccc3)NC(=O)[C@H](CCCNC(=N)N)NC(=O)[C@@H](N)CCC(N)=O)C(C)(C)SSC[C@@H](C(=O)N[C@@H](CC(N)=O)C(=O)NCC(=O)N3CCC[C@H]3C(N)=O)NC(=O)[C@@H]3CCCN3C(=O)[C@H](Cc3ccc(O)cc3)NC(=O)[C@H](CC(C)C)NC(=O)CNC(=O)CNC2=O)cc1
Take B3: the half-inhibitory concentration (IC50) in test [1] was determined as 100 µM.

By Kd is commonly meant the free concentration of one partner at which half of the binding sites on the other are occupied at equilibrium, for simple one-to-one binding. Molecule QRF[Pen]TG[His(1-Me)]FGGLYPCNGP-NH2 (disulfide 4-14) [Peptide No. 138] showed a dissociation constant (Kd) in test [3] of 0.74 µM. The same molecule returned an IC50 in test [4] of 3.4 µM.

B4: Peptide No. 222 (peptide)
peptide: RF[Pen]TGH[Phe(3-Cl)]GGLYPC-NH2
modifications: disulfide 3-13; N-terminus assumed
SMILES: CC(C)C[C@@H]1NC(=O)CNC(=O)CNC(=O)[C@H](Cc2cccc(Cl)c2)NC(=O)[C@H](Cc2c[nH]cn2)NC(=O)CNC(=O)[C@H]([C@@H](C)O)NC(=O)[C@@H](NC(=O)[C@H](Cc2ccccc2)NC(=O)[C@@H](N)CCCNC(=N)N)C(C)(C)SSC[C@@H](C(N)=O)NC(=O)[C@@H]2CCCN2C(=O)[C@H](Cc2ccc(O)cc2)NC1=O
In test [1], B4 registered a half-inhibitory concentration (IC50) of 3.7 µM.

In test [3], RFCTGXFGGLYPC (Pen 3; Thz 6; Sar 9; NMeL 10; disulfide 3-13; C-terminal amide) [Peptide No. 248] returned a Kd of 0.84 µM. The same molecule came in with an IC50 in test [4] of 1.6 µM.

B5: Peptide No. 33 (peptide)
peptide: QRFCTGHFGGLYP[Pen]NGP-NH2
modifications: disulfide 4-14; N-terminus assumed
SMILES: CC(C)C[C@@H]1NC(=O)CNC(=O)CNC(=O)[C@H](Cc2ccccc2)NC(=O)[C@H](Cc2c[nH]cn2)NC(=O)CNC(=O)[C@H]([C@@H](C)O)NC(=O)[C@@H](NC(=O)[C@H](Cc2ccccc2)NC(=O)[C@H](CCCNC(=N)N)NC(=O)[C@@H](N)CCC(N)=O)CSSC(C)(C)[C@@H](C(=O)N[C@@H](CC(N)=O)C(=O)NCC(=O)N2CCC[C@H]2C(N)=O)NC(=O)[C@@H]2CCCN2C(=O)[C@H](Cc2ccc(O)cc2)NC1=O
Turning to B5, in test [5], the IC50 stood at 18 µM.

B6: Peptide No. 69 (peptide)
peptide: QRF[Pen]TGHFGGLYP[hCys]NGP-NH2
modifications: disulfide 4-14; N-terminus assumed
SMILES: CC(C)C[C@@H]1NC(=O)CNC(=O)CNC(=O)[C@H](Cc2ccccc2)NC(=O)[C@H](Cc2c[nH]cn2)NC(=O)CNC(=O)[C@H]([C@@H](C)O)NC(=O)[C@@H](NC(=O)[C@H](Cc2ccccc2)NC(=O)[C@H](CCCNC(=N)N)NC(=O)[C@@H](N)CCC(N)=O)C(C)(C)SSCC[C@@H](C(=O)N[C@@H](CC(N)=O)C(=O)NCC(=O)N2CCC[C@H]2C(N)=O)NC(=O)[C@@H]2CCCN2C(=O)[C@H](Cc2ccc(O)cc2)NC1=O
In test [5], B6 displayed an IC50 of 2 µM.

B7: Peptide No. 266 (peptide)
peptide: RF[Pen]TGAFG[Sar][NMeL]YPC-NH2
modifications: disulfide 3-13; N-terminus assumed
SMILES: CC(C)C[C@H]1C(=O)N[C@@H](Cc2ccc(O)cc2)C(=O)N2CCC[C@H]2C(=O)N[C@H](C(N)=O)CSSC(C)(C)[C@H](NC(=O)[C@H](Cc2ccccc2)NC(=O)[C@@H](N)CCCNC(=N)N)C(=O)N[C@@H]([C@@H](C)O)C(=O)NCC(=O)N[C@@H](C)C(=O)N[C@@H](Cc2ccccc2)C(=O)NCC(=O)N(C)CC(=O)N1C
In the case of B7, the dissociation constant Kd in test [3] was found to be 9.9 µM. Besides, in test [4], the half-maximal inhibitory concentration (IC50) is > 100 µM.

Consider RF[Pen]TGHF[5,5‑bicyclic dipeptide mimic]LYPC-NH2 (disulfide 3-12; reading uncertain, isomer only in drawing CHEM-US-00084) [Peptide No. 198], for which the 50% inhibitory concentration (IC50) in test [2] is 23 µM.

B8: Peptide No. 224 (peptide)
peptide: RF[Pen]TGH[Dip]GGLYPC-NH2
modifications: disulfide 3-13; N-terminus assumed
SMILES: CC(C)C[C@@H]1NC(=O)CNC(=O)CNC(=O)[C@H](C(c2ccccc2)c2ccccc2)NC(=O)[C@H](Cc2c[nH]cn2)NC(=O)CNC(=O)[C@H]([C@@H](C)O)NC(=O)[C@@H](NC(=O)[C@H](Cc2ccccc2)NC(=O)[C@@H](N)CCCNC(=N)N)C(C)(C)SSC[C@@H](C(N)=O)NC(=O)[C@@H]2CCCN2C(=O)[C@H](Cc2ccc(O)cc2)NC1=O
With B8, the concentration for half-maximal inhibition (IC50) in test [1] is 32 µM.

B9: Peptide No. 221 (peptide)
peptide: RF[Pen]TGH[Phe(2-Cl)]GGLYPC-NH2
modifications: disulfide 3-13; N-terminus assumed
SMILES: CC(C)C[C@@H]1NC(=O)CNC(=O)CNC(=O)[C@H](Cc2ccccc2Cl)NC(=O)[C@H](Cc2c[nH]cn2)NC(=O)CNC(=O)[C@H]([C@@H](C)O)NC(=O)[C@@H](NC(=O)[C@H](Cc2ccccc2)NC(=O)[C@@H](N)CCCNC(=N)N)C(C)(C)SSC[C@@H](C(N)=O)NC(=O)[C@@H]2CCCN2C(=O)[C@H](Cc2ccc(O)cc2)NC1=O
Molecule B9 came in with a half-maximal inhibitory concentration (IC50) in test [1] of 4 µM.

B10: Peptide No. 40 (peptide)
peptide: QRF[Pen]TGHFG[dP]LYPCNGP-NH2
modifications: disulfide 4-14; N-terminus assumed
SMILES: CC(C)C[C@@H]1NC(=O)[C@H]2CCCN2C(=O)CNC(=O)[C@H](Cc2ccccc2)NC(=O)[C@H](Cc2c[nH]cn2)NC(=O)CNC(=O)[C@H]([C@@H](C)O)NC(=O)[C@@H](NC(=O)[C@H](Cc2ccccc2)NC(=O)[C@H](CCCNC(=N)N)NC(=O)[C@@H](N)CCC(N)=O)C(C)(C)SSC[C@@H](C(=O)N[C@@H](CC(N)=O)C(=O)NCC(=O)N2CCC[C@H]2C(N)=O)NC(=O)[C@@H]2CCCN2C(=O)[C@H](Cc2ccc(O)cc2)NC1=O
Consider B10, for which the dissociation constant (Kd) in test [6] came to 1.1 µM. For the same molecule, the IC50 in test [7] amounted to 1.4 µM.
